According to patent US20250152742A1, “COMPOSITIONS AND METHODS FOR NEUROLOGICAL DISEASES” (Trames Bio, Inc., priority 2022, published 2025):
Numbering of substitutions follows the chain as printed. Numbers in names are those of the source.

Tested on: engineered chimeric receptor SEQ ID NO: 33 and its mutants (human α7-nAChR ligand binding domain / human GlyRα1 ion pore domain) in Lenti-X 293T cells
Test: YFP fluorescence quenching anion reporter plate reader assay (percent quench, EC50)
Assay type: cell-based
Conditions: for YFP fluorescence quenching using CNL001 (percent quench): receptor named in row; for YFP fluorescence quenching using Facinicline, 30 nM fac: ligand Facinicline 30 nM; for YFP fluorescence quenching using Facinicline, 300 nM fac: ligand Facinicline 300 nM; for YFP fluorescence quenching using Facinicline, 30 uM fac: ligand Facinicline 30 uM; for YFP fluorescence quenching using TC-6987, 1 uM tc6987: ligand TC-6987 1 uM; for YFP fluorescence quenching using TC-6987, 10 uM tc6987: ligand TC-6987 10 uM; for YFP fluorescence quenching using TC-6987, 500 uM tc6987: ligand TC-6987 500 uM; for YFP fluorescence quenching using Varenicline, 3 nM var: ligand Varenicline 3 nM; for YFP fluorescence quenching using Varenicline, 30 nM var: ligand Varenicline 30 nM; for YFP fluorescence quenching using Varenicline, 300 nM var: ligand Varenicline 300 nM; for YFP fluorescence quenching using Varenicline, 500 nM var: ligand Varenicline 500 nM; for YFP fluorescence quenching using Varenicline, 1 uM var: ligand Varenicline 1 uM
Summary of the method: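 Lenti-X 293T cells co-expressing an anion-quenchable YFP were transiently transfected with receptor DNA, then ligand was added in NaI-substituted buffer (pH 7.2) after 30 min at 37 °C. Fluorescence was read about 2 min; percent quench = mean of last 10 s over 15 s pre-ligand baseline.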

[1] = 1 nM CNL001, first column so headed
[2] = 1 nM CNL001, second column so headed
[3] = 3 nM brd (TC-5619/Bradanicline)
[4] = 10 nM CNL001, first column so headed
[5] = 10 nM CNL001, second column so headed
[6] = 30 nM brd (TC-5619/Bradanicline)
[7] = 50 nM CNL001, first column so headed
[8] = 50 nM CNL001, second column so headed
[9] = 100 nM CNL001, first column so headed
[10] = 100 nM CNL001, second column so headed
[11] = 300 nM brd (TC-5619/Bradanicline)
[12] = 1 uM CNL001, first column so headed
[13] = 1 uM CNL001, second column so headed

B1: CODA217: engineered receptor: W77F in SEQ ID NO: 33 (protein)
chain: MRCSPGGVWLALAASLLHVSLQGEFQRKLYKELVKNYNPLERPVANDSQPLTVYFSLSLLQIMDVDEKNQVLTTNIFLQMSWTDHYLQWNVSEYPGVKTVRFPDGQIWKPDILLYNSADERFDATFHTNVLVNSSGHCQYLPPGIFKSSCPMDLKNFPMDVQTCKLKFGSWSYGGWSLDLQMQEADISGYIPNGEWDLVGIPGKRSERFYECCKEPYPDVTFTVTMRRRMGYYLIQMYIPSLLIVILSWISFWINMDAAPARVGLGITTVLTMTTQSSGSRASLPKVSYVKAIDIWMAVCLLFVFSALLEYAAVNFVSRQHKELLRFRRKRRHHKSPMLNLFQEDEAGEGRFNFSAYGMGPACLQAKDGISVKGANNSNTTNPPPAPSKSPEEMRKLFIQRAKKIDKISRIGFPMAFLIFNMFYWIIYKIVRREDVHNQ
modifications: synthetic sequence of chimeric LGIC
- YFP fluorescence quenching using CNL001 (percent quench) [1]: −22.273%
- YFP fluorescence quenching using CNL001 (percent quench) [2]: −19.415%
- YFP fluorescence quenching using TC-5619/Bradanicline (percent quench) [3]: −12.1%
- YFP fluorescence quenching using CNL001 (percent quench) [4]: −9.563%
- YFP fluorescence quenching using CNL001 (percent quench) [5]: 6.398%
- YFP fluorescence quenching using TC-5619/Bradanicline (percent quench) [6]: −14.72%
- YFP fluorescence quenching using CNL001 (percent quench) [7]: 61.938%
- YFP fluorescence quenching using CNL001 (percent quench) [8]: 66.837%
- YFP fluorescence quenching using ABT-126 (percent quench) (50 nM abt (ABT-126)): 37.81%
- YFP fluorescence quenching using CNL001 (percent quench) [9]: 79.791%
- YFP fluorescence quenching using CNL001 (percent quench) [10]: 80.908%
- YFP fluorescence quenching (percent quench) (100 nM CNL002): 67.81%
- YFP fluorescence quenching using ABT-126 (percent quench) (100 nM abt (ABT-126)): 57.31%
- YFP fluorescence quenching using AZD-0328 (percent quench) (100 nM azd0328): −7.57%
- YFP fluorescence quenching using ABT-126 (percent quench) (300 nM abt (ABT-126)): 12.61%
- YFP fluorescence quenching using AZD-0328 (percent quench) (300 nM azd0328): 7.08%
- YFP fluorescence quenching using TC-5619/Bradanicline (percent quench) [11]: −6.3%
- YFP fluorescence quenching using CNL001 (percent quench) [12]: 83.444%
- YFP fluorescence quenching using CNL001 (percent quench) [13]: 83.905%
- YFP fluorescence quenching (percent quench) (1 uM CNL002): 69.42%
- YFP fluorescence quenching using ABT-126 (percent quench) (1 uM abt (ABT-126)): 66.05%
- YFP fluorescence quenching (percent quench) (10 uM ach (acetylcholine)): −5.86%
- YFP fluorescence quenching (percent quench) (30 uM CNL002): 73.64%
- YFP fluorescence quenching using AZD-0328 (percent quench) (30 uM azd0328): 81.59%
- YFP fluorescence quenching (percent quench) (100 uM ach (acetylcholine)): 70.06%
- YFP fluorescence quenching (percent quench) (1 mM ach (acetylcholine)): 68.71%
- YFP fluorescence quenching (percent quench) (3 mM ach (acetylcholine)): 73.45%
- YFP fluorescence quenching using Facinicline, 30 nM fac: −10.14
- YFP fluorescence quenching using Facinicline, 300 nM fac: 68.29
- YFP fluorescence quenching using Facinicline, 30 uM fac: 87.35
- YFP fluorescence quenching using TC-6987, 1 uM tc6987: −10.35
- YFP fluorescence quenching using TC-6987, 10 uM tc6987: −13.93
- YFP fluorescence quenching using TC-6987, 500 uM tc6987: −7.54
- YFP fluorescence quenching using Varenicline, 3 nM var (first column): 5.662
- YFP fluorescence quenching using Varenicline, 3 nM var (second column): 7.57
- YFP fluorescence quenching using Varenicline, 30 nM var (first column): 13.968
- YFP fluorescence quenching using Varenicline, 30 nM var (second column): 19.079
- YFP fluorescence quenching using Varenicline, 300 nM var (first column): 16.183
- YFP fluorescence quenching using Varenicline, 300 nM var (second column): 18.025
- YFP fluorescence quenching using Varenicline, 500 nM var (first column): 23.366
- YFP fluorescence quenching using Varenicline, 500 nM var (second column): 19.206
- YFP fluorescence quenching using Varenicline, 1 uM var (first column): 34.69
- YFP fluorescence quenching using Varenicline, 1 uM var (second column): 30.504

B2: CODA109: engineered receptor: S170T in SEQ ID NO: 33 (protein)
chain: B1 chain with F77W, S170T
modifications: synthetic sequence of chimeric LGIC
- YFP fluorescence quenching using CNL001 (percent quench) [1]: 19.755%
- YFP fluorescence quenching using CNL001 (percent quench) [2]: 65.484%
- YFP fluorescence quenching using TC-5619/Bradanicline (percent quench) [3]: 70.58%
- YFP fluorescence quenching using CNL001 (percent quench) [4]: 79.024%
- YFP fluorescence quenching using CNL001 (percent quench) [5]: 81.563%
- YFP fluorescence quenching using TC-5619/Bradanicline (percent quench) [6]: 80.71%
- YFP fluorescence quenching using CNL001 (percent quench) [7]: 81.926%
- YFP fluorescence quenching using CNL001 (percent quench) [8]: 83.092%
- YFP fluorescence quenching using ABT-126 (percent quench) (50 nM abt (ABT-126)): 55.83%
- YFP fluorescence quenching using CNL001 (percent quench) [9]: 83%
- YFP fluorescence quenching using CNL001 (percent quench) [10]: 83.811%
- YFP fluorescence quenching (percent quench) (100 nM CNL002): 73.48%
- YFP fluorescence quenching using ABT-126 (percent quench) (100 nM abt (ABT-126)): 68.89%
- YFP fluorescence quenching using AZD-0328 (percent quench) (100 nM azd0328): 84.01%
- YFP fluorescence quenching using ABT-126 (percent quench) (300 nM abt (ABT-126)): 72.52%
- YFP fluorescence quenching using AZD-0328 (percent quench) (300 nM azd0328): 87.08%
- YFP fluorescence quenching using TC-5619/Bradanicline (percent quench) [11]: 80.66%
- YFP fluorescence quenching using CNL001 (percent quench) [12]: 81.834%
- YFP fluorescence quenching using CNL001 (percent quench) [13]: 83.858%
- YFP fluorescence quenching (percent quench) (1 uM CNL002): 70.03%
- YFP fluorescence quenching using ABT-126 (percent quench) (1 uM abt (ABT-126)): 70.96%
- YFP fluorescence quenching (percent quench) (10 uM ach (acetylcholine)): 82.91%
- YFP fluorescence quenching (percent quench) (30 uM ach (acetylcholine)): 82.53%
- YFP fluorescence quenching using AZD-0328 (percent quench) (30 uM azd0328): 87.27%
- YFP fluorescence quenching (percent quench) (50 uM ach (acetylcholine)): 82.11%
- YFP fluorescence quenching (percent quench) (100 uM ach (acetylcholine)): 83.68%
- YFP fluorescence quenching (percent quench) (1 mM ach (acetylcholine)): 69.89%
- YFP fluorescence quenching (percent quench) (3 mM ach (acetylcholine)): 78.12%
- YFP fluorescence quenching using Facinicline, 30 nM fac: 76.45
- YFP fluorescence quenching using Facinicline, 100 nM fac (ligand Facinicline 100 nM): 82.45
- YFP fluorescence quenching using Facinicline, 300 nM fac: 71.09
- YFP fluorescence quenching using Facinicline, 30 uM fac: 69.41
- YFP fluorescence quenching using TC-6987, 1 uM tc6987: 71.45
- YFP fluorescence quenching using TC-6987, 10 uM tc6987: 71.04
- YFP fluorescence quenching using TC-6987, 500 uM tc6987: 66.2
- YFP fluorescence quenching using Varenicline, 3 nM var (first column): −20.96
- YFP fluorescence quenching using Varenicline, 3 nM var (second column): −19.953
- YFP fluorescence quenching using Varenicline, 30 nM var (first column): −16.094
- YFP fluorescence quenching using Varenicline, 30 nM var (second column): −21.502
- YFP fluorescence quenching using Varenicline, 300 nM var (first column): 64.373
- YFP fluorescence quenching using Varenicline, 300 nM var (second column): 71.198
- YFP fluorescence quenching using Varenicline, 500 nM var (first column): 71.892
- YFP fluorescence quenching using Varenicline, 500 nM var (second column): 73.53
- YFP fluorescence quenching using Varenicline, 1 uM var (first column): 75.461
- YFP fluorescence quenching using Varenicline, 1 uM var (second column): 78.578
